# Results published in patent publication US20240240209A1, “SYNTHESIS OF ENANTIOPURE CIS-A-IRONE FROM A RENEWABLE CARBON SOURCE” (Agency for Science, Technology and Research, priority 2021, published 2024).
# Where a chain is given by its changes, count along the chain named. Names and notes keep the numbering of the source.
# B1: pMT1_Y200P: pMT1 with Y200P (protein)
# chain: MPQEARTPQQQVTADEVGDWYDKFGEVYHLTLGESVHCGLWFPPDAPVPQDMELVTMSSQAQDRYTDYLIETLDPKAGQHLLDIGCGTGRTALKAARQRGIAVTGVAVSKEQIAAANRLAAGHGLTERLTFEVADAMRLPYEDESFDCAWAIESLCHMDRAKALGEAWRVLKPGGDLLVLESVVTEELTEPETALFETLPAANVPPRLGEFFDIVSGAGFHTLSLKDLSANLAMTMNVFALGVYSRRAEFTERFGAEFVDGLLAGLGSAQETLIRKTRFFMATLRKPAV
# B2: pMT1_R160S: pMT1 with R160S (protein)
# chain: B1 chain with R160S, P200Y
# B3: pMT1_S182T: pMT1 with S182T (protein)
# chain: B1 chain with S182T, P200Y
# B4: pMT1_E153T: pMT1 with E153T (protein)
# chain: B1 chain with E153T, P200Y
# B5: pMT1_Y200R (protein)
# chain: B1 chain with P200R
# B6: pMT1_E153W: pMT1 with E153W (protein)
# chain: B1 chain with E153W, P200Y
# B7: pMT1_E153Q: pMT1 with E153Q (protein)
# chain: B1 chain with E153Q, P200Y
# B8: pMT1_M236A: pMT1 with M236A (protein)
# chain: B1 chain with P200Y, M236A
# B9: pMT1_R160V: pMT1 with R160V (protein)
# chain: B1 chain with R160V, P200Y
# B10: pMT1_E153V: pMT1 with E153V (protein)
# chain: B1 chain with E153V, P200Y
# B11: pMT1_E153Y: pMT1 with E153Y (protein)
# chain: B1 chain with E153Y, P200Y
# B12: pMT1_M236R: pMT1 with M236R (protein)
# chain: B1 chain with P200Y, M236R
# B13: pMT1_E153P: pMT1 with E153P (protein)
# chain: B1 chain with E153P, P200Y
# B14: pMT1_R160Y (protein)
# chain: B1 chain with R160Y, P200Y
# B15: pMT1_R160W: pMT1 with R160W (protein)
# chain: B1 chain with R160W, P200Y
# B16: pMT1_M236T: pMT1 with M236T (protein)
# chain: B1 chain with P200Y, M236T
# B17: pMT1_Y200Q: pMT1 with Y200Q (protein)
# chain: B1 chain with P200Q
# B18: pMT1_M236V (protein)
# chain: B1 chain with P200Y, M236V
# B19: pMT1_E153S: pMT1 with E153S (protein)
# chain: B1 chain with E153S, P200Y
# B20: pMT1_Y200W: pMT1 with Y200W (protein)
# chain: B1 chain with P200W
# B21: pMT1_E153R: pMT1 with E153R (protein)
# chain: B1 chain with E153R, P200Y
# B22: pMT1_M236Y: pMT1 with M236Y (protein)
# chain: B1 chain with P200Y, M236Y
# B23: pMT1_Y200A: pMT1 with Y200A (protein)
# chain: B1 chain with P200A
# B24: pMT1_Y200V: pMT1 with Y200V (protein)
# chain: B1 chain with P200V
# B25: pMT1_R160A: pMT1 with R160A (protein)
# chain: B1 chain with R160A, P200Y
# B26: pMT1_M236W: pMT1 with M236W (protein)
# chain: B1 chain with P200Y, M236W
# B27: pMT1_M236S: pMT1 with M236S (protein)
# chain: B1 chain with P200Y, M236S
# B28: pMT1_R160T: pMT1 with R160T (protein)
# chain: B1 chain with R160T, P200Y
# B29: pMT1_Y200T: pMT1 with Y200T (protein)
# chain: B1 chain with P200T
# B30: pMT1_M236P: pMT1 with M236P (protein)
# chain: B1 chain with P200Y, M236P
# B31: pMT1_R160Q: pMT1 with R160Q (protein)
# chain: B1 chain with R160Q, P200Y
# B32: pMT1_M236Q: pMT1 with M236Q (protein)
# chain: B1 chain with P200Y, M236Q
# B33: pMT1_Y200S: pMT1 with Y200S (protein)
# chain: B1 chain with P200S
# Assay: Cell lysate reaction of pMT enzymes with psi-ionone, irones quantified by HS-SPME-GCMS
# Type: biochemical
# Settings: AUC vs non-mutated (=1)
# Summary of the method: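 pMT1 site-saturation mutants were expressed in E. coli BL21(DE3) and lysed, and lysates were incubated 2 days at 28 °C with 0.2 mM SAM and 10 mg/L psi-ionone (plus caryophyllene) in 50 mM Tris pH 7, 10 mM MgCl2. Cis-α-irone was measured by HS-SPME-GCMS peak area and given as fold change over non-mutated enzyme.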
molecule,measurement,setting,value
B1,fold change in cis-α-irone produced,pMT1_Y200 mutants,0.0
B2,fold change in cis-α-irone produced,pMT1_R160 mutants,0.0
B3,fold change in cis-α-irone produced,pMT1_S182 mutants,0.23
B4,fold change in cis-α-irone produced,pMT1_E153 mutants,0.0
B5,fold change in cis-α-irone produced,pMT1_Y200 mutants,0.0
B6,fold change in cis-α-irone produced,pMT1_E153 mutants,0.0
B7,fold change in cis-α-irone produced,pMT1_E153 mutants,0.0
B8,fold change in cis-α-irone produced,pMT1_M236 mutants,0.7
B9,fold change in cis-α-irone produced,pMT1_R160 mutants,1.5
B10,fold change in cis-α-irone produced,pMT1_E153 mutants,0.0
B11,fold change in cis-α-irone produced,pMT1_E153 mutants,0.0
B12,fold change in cis-α-irone produced,pMT1_M236 mutants,0.0
B13,fold change in cis-α-irone produced,pMT1_E153 mutants,0.0
B14,fold change in cis-α-irone produced,pMT1_R160 mutants,1.3
B15,fold change in cis-α-irone produced,pMT1_R160 mutants,0.7
B16,fold change in cis-α-irone produced,pMT1_M236 mutants,1.7
B17,fold change in cis-α-irone produced,pMT1_Y200 mutants,0.1
B18,fold change in cis-α-irone produced,pMT1_M236 mutants,0.7
B19,fold change in cis-α-irone produced,pMT1_E153 mutants,0.0
B20,fold change in cis-α-irone produced,pMT1_Y200 mutants,2.1
B21,fold change in cis-α-irone produced,pMT1_E153 mutants,0.0
B22,fold change in cis-α-irone produced,pMT1_M236 mutants,0.0
B23,fold change in cis-α-irone produced,pMT1_Y200 mutants,0.2
B24,fold change in cis-α-irone produced,pMT1_Y200 mutants,1.1
B25,fold change in cis-α-irone produced,pMT1_R160 mutants,1.7
B26,fold change in cis-α-irone produced,pMT1_M236 mutants,0.2
B27,fold change in cis-α-irone produced,pMT1_M236 mutants,0.7
B28,fold change in cis-α-irone produced,pMT1_R160 mutants,1.2
B29,fold change in cis-α-irone produced,pMT1_Y200 mutants,0.0
B30,fold change in cis-α-irone produced,pMT1_M236 mutants,0.0
B31,fold change in cis-α-irone produced,pMT1_R160 mutants,1.3
B32,fold change in cis-α-irone produced,pMT1_M236 mutants,0.0
B33,fold change in cis-α-irone produced,pMT1_Y200 mutants,0.2
